Assay results: patent US12435158

Columns and labels:
Assay in all cases: SPR Biacore 8k, antibody captured
[1] = biological target: lambda Bence Jones protein Lam134c
[2] = biological target: lambda Bence Jones protein Lam788a
[3] = biological target: lambda Bence Jones protein Lam885
[4] = biological target: lambda Bence Jones protein Lam893c
[5] = biological target: lambda free light chain MyBio
[6] = biological target: lambda free light chain Sigma

B1: 10B3-VL1 (antibody, human IgG1, kappa, V domains shown)
VH: EVQLVESGGGLVKPGGSLRLSCAASGFTFSSYSMNWVRQAPGKGLEWVSFISSNRNYIYYADSVKGRFTISRDNAKNSLYLQMNSLRAEDTAVYYCASLANWGTYFDYWGQGTLVTVSS
VL: DIQMTQSPSSLSASVGDRVTITCRASQGISSWLAWYQQKPEKAPKSLIYAASSLQSGVPSRFSGSGSGTDFTLTISSLQPEDFATYYCRQYNSYPLTFGGGTKVEIRR
B1 was tested, and the Kd [1] was 0.0453 nM, the Kd [2] was 0.11 nM and the Kd [3] was 0.0707 nM. It also gave a Kd [4] of 0.0401 nM, a Kd [5] of 0.0437 nM and a Kd [6] of 0.522 nM.
